B1: Casein kinase I isoform epsilon (Homo sapiens), P49674 (parent)
chain: MELRVGNKYRLGRKIGSGSFGDIYLGANIASGEEVAIKLECVKTKHPQLHIESKFYKMMQGGVGIPSIKWCGAEGDYNVMVMELLGPSLEDLFNFCSRKFSLKTVLLLADQMISRIEYIHSKNFIHRDVKPDNFLMGLGKKGNLVYIIDFGLAKKYRDARTHQHIPYRENKNLTGTARYASINTHLGIEQSRRDDLESLGYVLMYFNLGSLPWQGLKAATKRQKYERISEKKMSTPIEVLCKGYPSEFSTYLNFCRSLRFDDKPDYSYLRQLFRNLFHRQGFSYDYVFDWNMLKFGAARNPEDVDRERREHEREERMGQLRGSATRALPPGPPTGATANRLRSAAEPVASTPASRIQPAGNTSPRAISRVDRERKVSMRLHRGAPANVSSSDLTGRQEVSRIPASQTSVPFDHLGK
partner: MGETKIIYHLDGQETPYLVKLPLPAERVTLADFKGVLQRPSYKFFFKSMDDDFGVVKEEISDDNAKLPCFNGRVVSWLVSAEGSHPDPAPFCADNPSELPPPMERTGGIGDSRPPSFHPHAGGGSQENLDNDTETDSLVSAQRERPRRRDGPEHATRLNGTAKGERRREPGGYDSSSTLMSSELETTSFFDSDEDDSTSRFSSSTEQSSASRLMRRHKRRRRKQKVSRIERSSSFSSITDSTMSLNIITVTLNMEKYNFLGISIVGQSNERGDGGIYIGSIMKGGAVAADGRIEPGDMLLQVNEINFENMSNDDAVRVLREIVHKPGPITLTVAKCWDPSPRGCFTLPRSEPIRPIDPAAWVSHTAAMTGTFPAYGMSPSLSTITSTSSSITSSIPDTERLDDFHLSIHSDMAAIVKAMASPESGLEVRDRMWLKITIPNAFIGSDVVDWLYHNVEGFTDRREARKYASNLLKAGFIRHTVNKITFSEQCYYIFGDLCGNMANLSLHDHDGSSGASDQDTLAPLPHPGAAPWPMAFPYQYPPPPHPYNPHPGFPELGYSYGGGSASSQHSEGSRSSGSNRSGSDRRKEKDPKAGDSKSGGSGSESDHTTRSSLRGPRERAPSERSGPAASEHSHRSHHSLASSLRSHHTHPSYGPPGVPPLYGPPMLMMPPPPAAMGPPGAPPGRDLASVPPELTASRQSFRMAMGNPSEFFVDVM
B2: Inhibin alpha chain (Homo sapiens), P05111 (parent)
chain: MVLHLLLFLLLTPQGGHSCQGLELARELVLAKVRALFLDALGPPAVTREGGDPGVRRLPRRHALGGFTHRGSEPEEEEDVSQAILFPATDASCEDKSAARGLAQEAEEGLFRYMFRPSQHTRSRQVTSAQLWFHTGLDRQGTAASNSSEPLLGLLALSPGGPVAVPMSLGHAPPHWAVLHLATSALSLLTHPVLVLLLRCPLCTCSARPEATPFLVAHTRTRPPSGGERARRSTPLMSWPWSPSALRLLQRPPEEPAAHANCHRVALNISFQELGWERWIVYPPSFIFHYCHGGCGLHIPPNLSLPVPGAPPTPAQPYSLLPGAQPCCAALPGTMRPLHVRTTSDGGYSFKYETVPNLLTQHCACI
partner: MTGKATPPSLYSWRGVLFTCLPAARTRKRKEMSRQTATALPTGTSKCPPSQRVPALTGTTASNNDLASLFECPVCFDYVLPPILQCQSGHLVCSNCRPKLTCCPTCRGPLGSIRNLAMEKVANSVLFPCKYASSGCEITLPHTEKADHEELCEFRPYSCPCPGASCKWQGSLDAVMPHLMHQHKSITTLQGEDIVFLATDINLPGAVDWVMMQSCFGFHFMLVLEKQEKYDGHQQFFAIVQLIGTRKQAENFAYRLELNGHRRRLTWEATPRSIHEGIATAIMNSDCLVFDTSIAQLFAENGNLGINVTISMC
B3: EF-hand domain-containing protein 1 (Homo sapiens), Q5JVL4 (parent)
chain: MVSNPVHGLPFLPGTSFKDSTKTAFHRSQTLSYRNGYAIVRRPTVGIGGDRLQFNQLSQAELDELASKAPVLTYGQPKQAPPADFIPAHVAFDKKVLKFDAYFQEDVPMSTEEQYRIRQVNIYYYLEDDSMSVIEPVVENSGILQGKLIKRQRLAKNDRGDHYHWKDLNRGINITIYGKTFRVVDCDQFTQVFLESQGIELNPPEKMALDPYTELRKQPLRKYVTPSDFDQLKQFLTFDKQVLRFYAIWDDTDSMYGECRTYIIHYYLMDDTVEIREVHERNDGRDPFPLLMNRQRVPKVLVENAKNFPQCVLEISDQEVLEWYTAKDFIVGKSLTILGRTFFIYDCDPFTRRYYKEKFGITDLPRIDVSKREPPPVKQELPPYNGFGLVEDSAQNCFALIPKAPKKDVIKMLVNDNKVLRYLAVLESPIPEDKDRRFVFSYFLATDMISIFEPPVRNSGIIGGKYLGRTKVVKPYSTVDNPVYYGPSDFFIGAVIEVFGHRFIILDTDEYVLKYMESNAAQYSPEALASIQNHVRKREAPAPEAESKQTEKDPGVQELEALIDTIQKQLKDHSCKDNIREAFQIYDKEASGYVDRDMFFKICESLNVPVDDSLVKELIRMCSHGEGKINYYNFVRAFSN
partner: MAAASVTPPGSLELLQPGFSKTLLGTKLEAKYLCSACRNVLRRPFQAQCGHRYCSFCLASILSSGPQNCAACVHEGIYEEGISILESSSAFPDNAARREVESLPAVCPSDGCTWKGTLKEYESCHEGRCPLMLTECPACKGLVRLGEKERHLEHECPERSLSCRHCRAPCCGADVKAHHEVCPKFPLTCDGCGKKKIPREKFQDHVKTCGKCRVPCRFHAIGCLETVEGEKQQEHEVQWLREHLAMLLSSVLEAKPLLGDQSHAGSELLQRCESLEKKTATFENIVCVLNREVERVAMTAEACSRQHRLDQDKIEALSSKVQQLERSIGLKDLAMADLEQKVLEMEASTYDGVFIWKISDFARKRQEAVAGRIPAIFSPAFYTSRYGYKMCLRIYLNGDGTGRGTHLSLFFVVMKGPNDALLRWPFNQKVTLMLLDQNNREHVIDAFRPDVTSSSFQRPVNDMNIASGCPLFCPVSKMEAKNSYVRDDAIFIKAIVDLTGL
B4: Tribbles homolog 3 (Homo sapiens), Q96RU7 (parent)
chain: MRATPLAAPAGSLSRKKRLELDDNLDTERPVQKRARSGPQPRLPPCLLPLSPPTAPDRATAVATASRLGPYVLLEPEEGGRAYQALHCPTGTEYTCKVYPVQEALAVLEPYARLPPHKHVARPTEVLAGTQLLYAFFTRTHGDMHSLVRSRHRIPEPEAAVLFRQMATALAHCHQHGLVLRDLKLCRFVFADRERKKLVLENLEDSCVLTGPDDSLWDKHACPAYVGPEILSSRASYSGKAADVWSLGVALFTMLAGHYPFQDSEPVLLFGKIRRGAYALPAGLSAPARCLVRCLLRREPAERLTATGILLHPWLRQDPMPLAPTRSHLWEAAQVVPDGLGLDEAREEEGDREVVLYG
partner: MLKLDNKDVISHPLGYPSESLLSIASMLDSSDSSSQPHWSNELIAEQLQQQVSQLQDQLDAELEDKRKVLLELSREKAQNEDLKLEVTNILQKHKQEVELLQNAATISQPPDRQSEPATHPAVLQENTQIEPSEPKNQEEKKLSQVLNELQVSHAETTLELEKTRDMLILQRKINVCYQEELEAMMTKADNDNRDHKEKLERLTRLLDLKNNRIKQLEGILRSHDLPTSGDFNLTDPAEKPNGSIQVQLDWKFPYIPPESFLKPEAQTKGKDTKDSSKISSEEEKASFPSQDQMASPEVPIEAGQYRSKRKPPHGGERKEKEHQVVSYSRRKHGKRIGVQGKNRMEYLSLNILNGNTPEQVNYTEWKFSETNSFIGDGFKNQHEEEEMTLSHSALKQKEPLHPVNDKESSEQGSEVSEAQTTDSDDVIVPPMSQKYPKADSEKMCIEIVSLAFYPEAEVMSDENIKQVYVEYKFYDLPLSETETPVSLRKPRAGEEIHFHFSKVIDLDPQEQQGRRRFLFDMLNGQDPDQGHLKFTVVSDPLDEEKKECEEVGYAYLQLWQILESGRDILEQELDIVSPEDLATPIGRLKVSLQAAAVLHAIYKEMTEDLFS

Variants of: B1
Conditions: with dvl3_human DVL3, Q92997

Variant | effect of a mutation on the interaction
S408N | disrupting interaction strength

Variants of: B2
Conditions: with SIAH1, Q8IUQ4-2

Variant | effect of a mutation on the interaction
MVLHLLLFLLLTPQGGHSCQGLELARELVLAKVRALFLDALGAPAVTREGGDPGVRRLPRRHALGGFTHRGSEPEEEEDVSQAILFPATDASCEDKSAARGLAQEAEEGLFRYMFRPSQHTRSRQVTSAQLWFHTGLDRQGTAASNSSEPLLGLLALSPGGPVAVPMSLGHAPPHWAVLHLATSALSLLTHPVLVLLLRCPLCTCSARPEATPFLVAHTRTRPPSGGERARRSTPLMSWPWSPSALRLLQRPPEEPAAHANCHRVALNISFQELGWERWIVYPPSFIFHYCHGGCGLHIPPNLSLPVPGAPPTPAQPYSLLPGAQPCCAALPGTMRPLHVRTTSDGGYSFKYETVPNLLTQHCACI [P43A] | with no effect

Variants of: B3
Conditions: with traf2_human TRAF2, Q12933

Variant | effect of a mutation on the interaction
M448T | with no effect
A394S | disrupting interaction strength
P77T | disrupting interaction strength
T508R | with no effect
R159W | with no effect
R221H | disrupting interaction strength

Variants of: B4
Conditions: with RPGRIP1, Q96KN7-4

Variant | effect of a mutation on the interaction
MRATPLAAPAGSLSRKKRLELDDNLDTERPVQKRARSGPQPRLPPCLLPLSPPTAPDRATAVATASRLGPYVLLEPEEGGRAYRALHCPTGTEYTCKVYPVQEALAVLEPYARLPPHKHVARPTEVLAGTQLLYAFFTRTHGDMHSLVRSRHRIPEPEAAVLFRQMATALAHCHQHGLVLRDLKLCRFVFADRERKKLVLENLEDSCVLTGPDDSLWDKHACPAYVGPEILSSRASYSGKAADVWSLGVALFTMLAGHYPFQDSEPVLLFGKIRRGAYALPAGLSAPARCLVRCLLRREPAERLTATGILLHPWLRQDPMPLAPTRSHLWEAAQVVPDGLGLDEAREEEGDREVVLYG [Q84R] | with no effect
